Measurements as given in US20170088602A1 (Bristol-Myers Squibb, published 2017).
Substitutions are numbered along the chain they refer to. Names and notes keep the numbering of the source.

T1: human BMP-11 (GDF-11; R&D Systems) (human, UniProt O95390 299-407)
T1 sequence (looked up): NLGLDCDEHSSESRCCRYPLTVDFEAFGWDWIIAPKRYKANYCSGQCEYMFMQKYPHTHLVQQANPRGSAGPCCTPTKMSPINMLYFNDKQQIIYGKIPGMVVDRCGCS

T2: human Activin A (R&D Systems) (human, UniProt P08476 311-426)
T2 sequence (looked up): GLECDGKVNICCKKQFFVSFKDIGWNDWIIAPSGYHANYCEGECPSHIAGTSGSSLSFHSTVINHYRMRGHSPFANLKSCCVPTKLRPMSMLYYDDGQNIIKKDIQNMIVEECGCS

T3: human myostatin (mature, recombinant; R&D Systems) (human, UniProt O14793 267-375)
T3 sequence: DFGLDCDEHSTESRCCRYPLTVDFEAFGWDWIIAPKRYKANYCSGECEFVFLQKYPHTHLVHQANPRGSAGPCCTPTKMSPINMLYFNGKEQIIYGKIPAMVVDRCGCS

B1: 1979_B06 (designed binder)
chain: MGVSDVPRDLEVVAATPTSLLISWSLPHAGHVNYYRITYGETGGNSPVQEFTVPGRGVTATISGLKPGVDYTITVYAVTLTKSQMIHYMPISINYRTEIDKPSQHHHHHH
notes: monoAdnectin with His6 tag; also called ATI-1133
B2: 3116_A06 (designed binder)
chain: MGVSDVPRDLEVVAATPTSLLISWSLPHQGKANYYRITYGETGGNSPVQEFTVPGRGVTATISGLKPGVDYTITVYAVTVTDTGYLKYKPISINYRTEIDKPSQHHHHHH
notes: also called WT parent
B3: 3116_A06 H28A (designed binder)
chain: B2 chain with H28A
B4: 3116_A06 L26A (designed binder)
chain: B2 chain with L26A
B5: 3116_A06 L86A (designed binder)
chain: B2 chain with L86A
B6: 3116_A06 N33A (designed binder)
chain: B2 chain with N33A
B7: 3116_A06 P27A (designed binder)
chain: B2 chain with P27A
B8: 3116_A06 Y85A (designed binder)
chain: B2 chain with Y85A
B9: ATI-1266 [40K 2-branch PEG] (designed binder)
chain: MGVSDVPRDLEVVAATPTSLLISWTLPHAGRAHYYRITYGETGGNSPVQEFTVPGRGVTATISGLKPGVDYTITVYAVTVTTTSVILYKPISINYRTEGSGCHHHHHH
modifications: 40K 2-branch PEG on the Cys of the EGSGC tail
notes: cysteine mutant of 2525_D02
B10: ATI-1378 [40K 2-branch PEG] (designed binder)
chain: B9 chain with T25S, H28N, A29P, R31N, T82D, S84G, V85F, L87T
modifications: 40K 2-branch PEG on the Cys of the EGSGC tail
notes: cysteine mutant of 3146_A08
B11: ATI-1379 [40K 2-branch PEG] (designed binder)
chain: B9 chain with T25S, A29Q, R31K, H33N, T82D, S84G, V85Y, I86L, L87K
modifications: 40K 2-branch PEG on the Cys of the EGSGC tail
B12: ATI-1341 [20K Bis-PEG] (designed binder)
chain: B9 chain with S84K, L87H
modifications: two Adnectins joined through their tail Cys to the two ends of a 20 kDa bis-PEG
notes: bivalent PEGylated form of the 2987_H07 cysteine mutant
B13: ATI-1359 [40K 2-branch PEG] (designed binder)
chain: MGVSDVPRDLEVVAATPTSLLISWTLPHAGRAHYYRITYGETGGNSPVQEFTVPGRGVTATISGLKPGVDYTITVYAVTVTTTKVIHYKPISINYRTEGSGC
modifications: 40K 2-branch PEG on the Cys of the EGSGC tail
B14: ATI-1376 [40K 2-branch PEG] (designed binder)
chain: MGVSDVPRDLEVVAATPTSLLISWDAPAGLARYYRITYGETGGNSPVQEFTVVGRGNTATISGLKPGVDYTITVYAVTIFRDGPVTWDPISINYRTEGSGCHHHHHH
modifications: 40K 2-branch PEG on the Cys of the EGSGC tail
notes: cysteine mutant of 3115_E06
B15: ATI-1375 [40K 2-branch PEG] (designed binder)
chain: B14 chain with A28R, V53F, N57T, F80D, P84T, V85R, T86S, W87F
modifications: 40K 2-branch PEG on the Cys of the EGSGC tail
notes: cysteine mutant of 3115_D04
B16: ATI-1377 [40K 2-branch PEG] (designed binder)
chain: B14 chain with A28K
modifications: 40K 2-branch PEG on the Cys of the EGSGC tail
B17: 3116_A06 D82A (designed binder)
chain: B2 chain with D82A
B18: 3116_A06 G55A (designed binder)
chain: B2 chain with G55A
B19: 3116_A06 G57A (designed binder)
chain: B2 chain with G57A
B20: 3116_A06 G84A (designed binder)
chain: B2 chain with G84A
B21: 3116_A06 K31A (designed binder)
chain: B2 chain with K31A
B22: 3116_A06 K87A (designed binder)
chain: B2 chain with K87A
B23: 3116_A06 K89A (designed binder)
chain: B2 chain with K89A
B24: 3116_A06 Q29A (designed binder)
chain: B2 chain with Q29A
B25: 3116_A06 S25A (designed binder)
chain: B2 chain with S25A
B26: 3116_A06 T83A (designed binder)
chain: B2 chain with T83A
B27: 3116_A06 V58A (designed binder)
chain: B2 chain with V58A
B28: ATI-1106 [40K 2-branch PEG] (designed binder)
chain: MGVSDVPRDLEVVAATPTSLLISWVSPRGRARYYRITYGETGGNSPVQEFTVPGRGSTATISGLKPGVDYTITVYAVTIYRDGMSHHDPISINYRTGSGCHHHHHH
modifications: 40K 2-branch PEG on the Cys of the GSGC tail

Target: T1, human BMP-11 (GDF-11; R&D Systems)
Experiment: cell-based or functional assay

Row | Binder | ARE-luciferase IC50
1 | B1 | 3.3 nM
2 | B2 | 13 nM

Target: T2, human Activin A (R&D Systems)
Experiment: cell-based or functional assay

Row | Binder | ARE-luciferase IC50
3 | B1 | 194 nM
4 | B2 | > 1000 nM

Target: T3, human myostatin (mature, recombinant; …)
Experiment: cell-based or functional assay

Row | Binder | ARE-luciferase IC50
5 | B1 | 0.11 nM
6 | B2 | 0.14 nM

Target: T3, human myostatin (mature, recombinant; …)
Experiment: cell-based or functional assay
Remark: another data set of the same source

Row | Binder | ARE-luciferase cell-based assay, IC50 relative to parent sequence
7 | B3 | > 10 fold
8 | B4 | > 10 fold
9 | B5 | > 10 fold
10 | B6 | > 10 fold
11 | B7 | > 10 fold
12 | B8 | > 10 fold

Target: T3, human myostatin (mature, recombinant; …)
Experiment: competitive HTRF (1889E01/myostatin/ActRIIb-Fc sandwich)
Source text: An HTRF assay was used to measure the binding affinities of anti-myostatin Adnectins to myostatin. […] The Eu-W 1024 labeled Streptavidin is used to bind biotinylated 1889E01. […] In the presence of a competitive Adnectin, the HTRF signal decreases.

Row | Binder | IC50
13 | B2 | 0.15 nM
14 | B9 | 0.21 nM
15 | B10 | 1.29 nM
16 | B11 | 0.28 nM
17 | B12 | 0.13 nM
18 | B13 | 0.36 nM
19 | B14 | 0.32 nM
20 | B15 | 0.76 nM
21 | B16 | 0.15 nM

Target: T1, human BMP-11 (GDF-11; R&D Systems)
Experiment: SPR format A, 25C
Source text: (§1) Anti-human Fc antibody (Biacore/GE) was immobilized on a Biacore CM5 chip via NHS/EDC coupling according to the manufacturer's instructions. […] A concentration range of anti-myostatin Adnectin was applied across all flow cells in HBSP running buffer. Regeneration of the chip surface between cycles was accomplished with two 30 second pulses of 3M MgCl₂. Kinetic traces of reference-subtracted sensorgrams were fit to a 1:1 binding model using Biaevaluation software.

Row | Binder | Kd
22 | B1 | 489 nM
23 | B9 | 2.57 nM
24 | B10 | 59.6 nM
25 | B11 | 21.6 nM
26 | B13 | 35.5 nM
27 | B14 | 13.4 nM
28 | B15 | 33.2 nM
29 | B16 | 14.2 nM

Target: T2, human Activin A (R&D Systems)
Experiment: SPR format A, 25C
Source text: as §1

Row | Binder | binding result
30 | B1 | no binding

Target: T3, human myostatin (mature, recombinant; …)
Experiment: SPR format A, 25C
Source text: as §1

Row | Binder | Kd
31 | B1 | 29 nM
32 | B9 | 0.76 nM
33 | B10 | 14.4 nM
34 | B11 | 9.5 nM
35 | B13 | 7.9 nM
36 | B14 | 8.21 nM
37 | B15 | 12.6 nM
38 | B16 | 8.21 nM

Target: T3, human myostatin (mature, recombinant; …)
Experiment: competitive HTRF, alanine scan

Row | Binder | IC50
39 | B2 | 0.3 nM
40 | B17 | 0.8 nM
41 | B18 | > 100 nM
42 | B19 | > 100 nM
43 | B20 | 2 nM
44 | B3 | 0.8 nM
45 | B21 | 0.6 nM
46 | B22 | 0.8 nM
47 | B23 | 0.7 nM
48 | B4 | 2.3 nM
49 | B5 | 1.4 nM
50 | B6 | 2 nM
51 | B7 | 1 nM
52 | B24 | 0.7 nM
53 | B25 | 0.8 nM
54 | B26 | 1.3 nM
55 | B27 | 1.6 nM
56 | B8 | 2 nM

Target: T3, human myostatin (mature, recombinant; …)
Experiment: cell-based or functional assay
Remark: another data set of the same source

Row | Binder | pSmad2 IC50, 12-point | pSmad2 IC50, 4-point
57 | B1 | 12.8 nM | –
58 | B2 | – | 0.27 nM

Target: T3, human myostatin (mature, recombinant; …)
Experiment: cell-based or functional assay
Remark: another data set of the same source

Row | Binder | Myostatin ARE-luc IC50
59 | B2 | 0.6 nM
60 | B17 | 1.8 nM
61 | B18 | > 100 nM
62 | B19 | > 100 nM
63 | B20 | 3.6 nM
64 | B3 | 6.2 nM
65 | B21 | 2.2 nM
66 | B22 | 2 nM
67 | B23 | 1.6 nM
68 | B4 | 16 nM
69 | B5 | 12 nM
70 | B6 | 9.8 nM
71 | B7 | 10 nM
72 | B24 | 1.5 nM
73 | B25 | 2.9 nM
74 | B26 | 1.8 nM
75 | B27 | 3.3 nM
76 | B8 | 5.5 nM

Target: T1, human BMP-11 (GDF-11; R&D Systems)
Experiment: cell-based or functional assay
Remark: another data set of the same source

Row | Binder | ARE-luciferase IC50
77 | B9 | 0.89 nM
78 | B10 | 5.4 nM
79 | B11 | 4.3 nM
80 | B28 | 1410 nM
81 | B12 | 0.14 nM
82 | B13 | 3.1 nM
83 | B14 | 0.83 nM
84 | B15 | 1.6 nM
85 | B16 | 0.78 nM

Target: T2, human Activin A (R&D Systems)
Experiment: cell-based or functional assay
Remark: another data set of the same source

Row | Binder | ARE-luciferase IC50
86 | B9 | 2000 nM
87 | B10 | > 1000 nM
88 | B11 | > 1000 nM
89 | B28 | > 2000 nM
90 | B12 | 14 nM
91 | B13 | > 1000 nM
92 | B14 | > 1000 nM
93 | B15 | > 1000 nM
94 | B16 | > 1000 nM

Target: T3, human myostatin (mature, recombinant; …)
Experiment: cell-based or functional assay
Remark: another data set of the same source

Row | Binder | ARE-luciferase IC50
95 | B9 | 0.12 nM
96 | B10 | 0.29 nM
97 | B11 | 0.1 nM
98 | B28 | 177 nM
99 | B12 | 0.03 nM
100 | B13 | 0.26 nM
101 | B14 | 0.03 nM
102 | B15 | 0.17 nM
103 | B16 | 0.05 nM
